Test results from the supplement of paper PMC11246515.
± gives the standard deviation of the averaged measurements.

Test: total protein half-life in vivo (active degradation + dilution); higher = more stable protein
[1] = E. coli NCM3722 delta-clpP delta-lon delta-hslV, growth: N-lim chemostat, doubling time 6 h
[2] = E. coli NCM3722 delta-clpP, growth: N-lim chemostat, doubling time 6 h
[3] = E. coli NCM3722 delta-hslV, growth: N-lim chemostat, doubling time 6 h
[4] = E. coli NCM3722 delta-lon, growth: N-lim chemostat, doubling time 6 h
[5] = E. coli NCM3722 delta-smpB, growth: N-lim chemostat, doubling time 6 h
[6] = wild type E. coli NCM3722, growth: C-lim chemostat, doubling time 3 h
[7] = wild type E. coli NCM3722, growth: C-lim chemostat, doubling time 6 h
[8] = wild type E. coli NCM3722, growth: C-lim chemostat, doubling time 12 h
[9] = wild type E. coli NCM3722, growth: N-lim chemostat, doubling time 6 h
[10] = wild type E. coli NCM3722, growth: N-lim chemostat, doubling time 12 h
[11] = wild type E. coli NCM3722, growth: P-lim chemostat, doubling time 6 h
[12] = wild type E. coli NCM3722, growth: P-lim chemostat, doubling time 12 h

Sequence	total protein half-life in vivo [1] [h]	total protein half-life in vivo [2] [h]	total protein half-life in vivo [3] [h]	total protein half-life in vivo [4] [h]	total protein half-life in vivo [5] [h]	total protein half-life in vivo [6] [h]	total protein half-life in vivo [7] [h]	total protein half-life in vivo [8] [h]	total protein half-life in vivo [9] [h]	total protein half-life in vivo [10] [h]	total protein half-life in vivo [11] [h]	total protein half-life in vivo [12] [h]
MPSFDIVSEVDLQEARNAVDNASREVESRFDFRNVEASFELNDASKTIKVLSESDFQVNQLLDILRAKLLKRGIEGSSLDVPENIVHSGKTWFVEAKLKQGIESATQKKIVKMIKDSKLKVQAQIQGDEIRVTGKSRDDLQAVMAMVRGGDLGQPFQFKNFRD [P0A8E7]	6.17 ± 0.16	6.38 ± 1	5.06 ± 0.27	6.83 ± 0.4	5.85 ± 0.38	3.18 ± 0.28	6.22 ± 1.1	10.7 ± 0.25	4.32 ± 0.57	8.82 ± 1	5.06 ± 1.4	12.7 ± 1.6
MPSIRLADLAQQLDAELHGDGDIVITGVASMQSAQTGHITFMVNPKYREHLGLCQASAVVMTQDDLPFAKSAALVVKNPYLTYARMAQILDTTPQPAQNIAPSAVIDATAKLGNNVSIGANAVIESGVELGDNVIIGAGCFVGKNSKIGAGSRLWANVTIYHEIQIGQNCLIQSGTVVGADGFGYANDRGNWVKIPQIGRVIIGDRVEIGACTTIDRGALDDTIIGNGVIIDNQCQIAHNVVIGDNTAVAGGVIMAGSLKIGRYCMIGGASVINGHMEICDKVTVTGMGMVMRPITEPGVYSSGIPLQPNKVWRKTAALVMNIDDMSKRLKSLERKVNQQD	6.07 ± 0.77	6.31 ± 1.8	5.56 ± 0.47	5.67 ± 0.27	5.17 ± 0.14	2.94 ± 0.27	5.58 ± 0.18	12.2 ± 1.4	5.06 ± 0.12	9.29 ± 0.54	5.9 ± 0.48	12.7 ± 0.47
MPSLSKEAALVHEALVARGLETPLRPPVHEMDNETRKSLIAGHMTEIMQLLNLDLADDSLMETPHRIAKMYVDEIFSGLDYANFPKITLIENKMKVDEMVTVRDITLTSTCEHHFVTIDGKATVAYIPKDSVIGLSKINRIVQFFAQRPQVQERLTQQILIALQTLLGTNNVAVSIDAVHYCVKARGIRDATSATTTTSLGGLFKSSQNTRHEFLRAVRHHN [P0A6T5]	2.49 ± 0.12	1.56 ± 0.27	1.5 ± 0.11	1.82 ± 0.16	1.65 ± 0.21	2.81 ± 0.23	3.46 ± 0.48	5.29 ± 0.21	1.89 ± 0.34	2.02 ± 0.14	4.46 ± 0.21	8.1 ± 0.27
MPVAHVALPVPLPRTFDYLLPEGMTVKAGCRVRVPFGKQQERIGIVVSVSDASELPLNELKAVVEVLDSEPVFTHSVWRLLLWAADYYHHPIGDVLFHALPILLRQGRPAANAPMWYWFATEQGQAVDLNSLKRSPKQQQALAALRQGKIWRDQVATLEFNDAALQALRKKGLCDLASETPEFSDWRTNYAVSGERLRLNTEQATAVGAIHSAADTFSAWLLAGVTGSGKTEVYLSVLENVLAQGKQALVMVPEIGLTPQTIARFRERFNAPVEVLHSGLNDSERLSAWLKAKNGEAAIVIGTRSALFTPFKNLGVIVIDEEHDSSYKQQEGWRYHARDLAVYRAHSEQIPIILGSATPALETLCNVQQKKYRLLRLTRRAGNARPAIQHVLDLKGQKVQAGLAPALITRMRQHLQADNQVILFLNRRGFAPALLCHDCGWIAECPRCDHYYTLHQAQHHLRCHHCDSQRPVPRQCPSCGSTHLVPVGLGTEQLEQTLAPLFPGVPISRIDRDTTSRKGALEQQLAEVHRGGARILIGTQMLAKGHHFPDVTLVALLDVDGALFSADFRSAERFAQLYTQVAGRAGRAGKQGEVVLQTHHPEHPLLQTLLYKGYDAFAEQALAERRMMQLPPWTSHVIVRAEDHNNQHAPLFLQQLRNLILSSPLADEKLWVLGPVPALAPKRGGRWRWQILLQHPSRVRLQHIINGTLALINTIPDSRKVKWVLDVDPIEG	5.492 ± 0.011	6.24 ± 0.23	5.9 ± 0.067	5.89 ± 0.2	5.23 ± 0.45	2.86 ± 0.03	5.85 ± 0.21	9.53 ± 1.3	5.35 ± 0.074	12.2 ± 1	6.13 ± 0.2	
MPVRAQRIQHVMQDTIINFYSTSDDYGDFSNFAAWPIKVDGKTWPTSEHYFQAQKFLDEKYREEIRRVSSPMVAARMGRDRSKPLRKNWESVKEQVMRKALRAKFEQHAELRALLLATAPAKLVEHTENDAYWGDGGHGKGKNRLGYLLMELREQLAIEK			4.25					12.3				
MPVRASIEPLTWENAFFGVNSAIVRITSEAPLLTPDALAPWSRVQAKIAASNTGELDALQQLGFSLVEGEVDLALPVNNASDSGAVVAQETDIPALRQLASAAFAQSRFRAPWYAPDASSRFYAQWIENAVRGTFDHQCLILRAASGDIRGYVSLRELNATDARIGLLAGRGAGAELMQTALNWAYARGKTTLRVATQMGNTAALKRYIQSGANVESTAYWLYR	5.12 ± 0.074	5.45 ± 0.15	5.034 ± 0.029	5.27 ± 0.26	4.7 ± 0.44	3.03 ± 0.15	5.9 ± 0.062	11.5	5.052 ± 0.012	9.31 ± 0.14	5.73 ± 0.87	12.6 ± 0.52
